# According to US20150291689A1 (AbbVie / Abbott, published 2015):
# Changes are numbered by the printed parent chain.
# T1: human IL-17A/F heterodimer (human, UniProt Q16552 24-155; Q96PD4 31-163)
# T1 sequence 1: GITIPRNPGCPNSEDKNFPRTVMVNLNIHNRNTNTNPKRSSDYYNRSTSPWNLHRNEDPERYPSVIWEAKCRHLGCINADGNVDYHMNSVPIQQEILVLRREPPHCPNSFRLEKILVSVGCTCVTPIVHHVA
# T1 sequence 2: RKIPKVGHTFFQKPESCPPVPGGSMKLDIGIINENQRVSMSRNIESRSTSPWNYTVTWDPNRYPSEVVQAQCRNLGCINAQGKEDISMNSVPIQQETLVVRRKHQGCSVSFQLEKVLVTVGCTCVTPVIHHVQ
# T2: human IL-17A homodimer (IL-17 A/A) (human, UniProt Q16552 24-155)
# T2 sequence: T1 sequence 1
# T3: mouse IL-17 (Mouse, UniProt Q62386 26-158, limits assumed)
# T3 sequence (looked up): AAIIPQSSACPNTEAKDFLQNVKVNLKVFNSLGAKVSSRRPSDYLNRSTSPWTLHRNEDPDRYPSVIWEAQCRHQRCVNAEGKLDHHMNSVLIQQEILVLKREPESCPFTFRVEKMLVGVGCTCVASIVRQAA
# T4: mouse TNF (Mouse, UniProt P06804 80-235)
# T4 sequence (looked up): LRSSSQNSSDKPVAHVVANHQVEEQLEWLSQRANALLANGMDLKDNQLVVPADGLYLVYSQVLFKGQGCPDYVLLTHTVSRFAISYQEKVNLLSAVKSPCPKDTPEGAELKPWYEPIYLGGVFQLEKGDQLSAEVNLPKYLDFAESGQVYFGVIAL
# T5: rabbit IL-17 (Rabbit, UniProt G1SLF2 24-153)
# T5 sequence: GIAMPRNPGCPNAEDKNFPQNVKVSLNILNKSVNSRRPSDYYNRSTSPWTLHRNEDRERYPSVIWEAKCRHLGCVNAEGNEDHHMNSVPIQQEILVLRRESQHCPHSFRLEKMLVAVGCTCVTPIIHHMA
# T6: rabbit TNF (Rabbit, UniProt P04924 80-235, limits assumed)
# T6 sequence (looked up): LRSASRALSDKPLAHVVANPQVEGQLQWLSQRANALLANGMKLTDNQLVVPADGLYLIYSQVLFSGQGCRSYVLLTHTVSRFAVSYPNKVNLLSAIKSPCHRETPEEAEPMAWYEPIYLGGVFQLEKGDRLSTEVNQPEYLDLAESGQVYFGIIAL
# T7: rat TNF (Rat, UniProt P16599 80-235)
# T7 sequence (looked up): T4 sequence (looked up) with V22A, V58I, N91S, V96I, I117M, Q130L, F143I, A144T
# T8: monkey (Rhesus/Cynomolgus) IL-17 (Monkey (Rhesus/Cynomolgus), UniProt F6T3G5 24-155)
# T8 sequence: T1 sequence 1 with T3A, N17T, I77V, P104R
# T9: rat IL-17 (Rat, UniProt Q61453 18-150, limits assumed)
# T9 sequence (looked up): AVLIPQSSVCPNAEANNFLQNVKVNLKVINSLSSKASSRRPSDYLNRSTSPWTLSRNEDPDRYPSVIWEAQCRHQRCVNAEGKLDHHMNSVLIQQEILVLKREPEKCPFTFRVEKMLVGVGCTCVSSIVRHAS
# B1: ABBV-257 (HMAK199-1-GS10-H10F7-M11 DVD-Ig binding protein) (bispecific antibody)
# heavy: EVQLVQSGAEVKKPGASVKVSCKASGYTFANYGIIWVRQAPGQGLEWMGWINTYTGKPTYAQKFQGRVTMTTDTSTSTAYMELSSLRSEDTAVYYCARKLFTTMDVTDNAMDYWGQGTTVTVSSGGGGSGGGGSEVQLVQSGAEVKKPGSSVKVSCKASGYTFTDYEIHWVRQAPGQGLEWMGVNDPESGGTFYNQKFDGRVTLTADESTSTAYMELSSLRSEDTAVYYCTRYSKWDSFDGMDYWGQGTTVTVSSASTKGPSVFPLAPSSKSTSGGTAALGCLVKDYFPEPVTVSWNSGALTSGVHTFPAVLQSSGLYSLSSVVTVPSSSLGTQTYICNVNHKPSNTKVDKKVEPKSCDKTHTCPPCPAPEAAGGPSVFLFPPKPKDQLMISRTPEVTCVVVDVSHEDPEVKFNWYVDGVEVHNAKTKPREEQYNSTYRVVSVLTVLHQDWLNGKEYKCKVSNKALPAPIEKTISKAKGQPREPQVYTLPPSREEMTKNQVSLTCLVKGFYPSDIAVEWESNGQPENNYKTTPPVLDSDGSFFLYSKLTVDKSRWQQGNVFSCSVLHEALHNHYTQKSLSLSPGK
# light: DIQMTQSPSSLSASVGDRVTITCRASQDISQYLNWYQQKPGKAPKLLIYYTSRLQSGVPSRFSGSGSGTDFTLTISSLQPEDFATYFCQQGNTWPPTFGQGTKLEIKRGGSGGGGSGDIQMTQSPSSLSASVGDRVTITCRASSGIISYIDWFQQKPGKAPKRLIYATFDLASGVPSRFSGSGSGTDYTLTISSLQPEDFATYYCRQVGSYPETFGQGTKLEIKRTVAAPSVFIFPPSDEQLKSGTASVVCLLNNFYPREAKVQWKVDNALQSGNSQESVTEQDSKDSTYSLSSTLTLSKADYEKHKVYACEVTHQGLSSPVTKSFNRGEC
# modifications: N-linked glycans on the heavy chain (position not given)
# Assays:
# [1] = target: T1, human IL-17A/F heterodimer; test: cell-based or functional assay
# [2] = target: T2, human IL-17A homodimer (IL-17 A/A); test: cell-based or functional assay
# human TNF-α [3] = target: T10, human TNF-α (human, UniProt P01375 77-233); test: cell-based or functional assay
# mouse IL-17 = target: T3, mouse IL-17; test: cell-based or functional assay
# [4] = target: T2, human IL-17A homodimer (IL-17 A/A); test: cell-based or functional assay; remark: listed apart in the source
# mouse TNF = target: T4, mouse TNF; test: cell-based or functional assay
# rabbit IL-17 [5] = target: T5, rabbit IL-17; test: cell-based or functional assay
# rabbit TNF = target: T6, rabbit TNF; test: cell-based or functional assay
# rat TNF = target: T7, rat TNF; test: cell-based or functional assay
# [6] = target: monkey (Rhesus/Cynomolgus) TNF (Monkey (Rhesus/Cynomolgus), UniProt P48094 77-233); test: cell-based or functional assay
# [7] = target: T8, monkey (Rhesus/Cynomolgus) IL-17; test: cell-based or functional assay
# human TNF-α [8] = target: T10, human TNF-α; test: cell-based or functional assay; remark: listed apart in the source
# rat IL-17 = target: T9, rat IL-17; test: cell-based or functional assay
# rabbit IL-17 [9] = target: T5, rabbit IL-17; test: Biacore SPR, 3 experiments
# T10 sequence (P01375 77-233 limits assumed): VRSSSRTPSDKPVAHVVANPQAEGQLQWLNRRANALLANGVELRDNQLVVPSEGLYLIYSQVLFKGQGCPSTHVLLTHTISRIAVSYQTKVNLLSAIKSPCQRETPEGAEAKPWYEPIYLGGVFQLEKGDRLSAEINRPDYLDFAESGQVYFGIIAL
# Chain of monkey (Rhesus/Cynomolgus) TNF (P48094 77-233 limits assumed): as the sequence (P01375 77-233 limits assumed) above, with R44T, T72N, R138L counted along it
binder,measurement,setting,value
B1,"Mean IC50, IL-17 dependent induction of IL-6 in fibroblasts",[1],0.11 nM
same,"Mean IC50, IL-17 dependent induction of IL-6 in fibroblasts",[2],0.026 nM
same,"Mean IC50, TNF-induced lethality of L929 cells",human TNF-α [3],0.025 nM
same,"IC50, in vitro neutralization assay",mouse IL-17,0.239 nM
same,"IC50, in vitro neutralization assay",[4],0.026 nM
same,"IC50, in vitro neutralization assay",mouse TNF,> 1000 nM
same,"IC50, in vitro neutralization assay",rabbit IL-17 [5],11.4 nM
same,"IC50, in vitro neutralization assay",rabbit TNF,> 1000 nM
same,"IC50, in vitro neutralization assay",rat TNF,> 1000 nM
same,"IC50, in vitro neutralization assay",[6],0.025 nM
same,"IC50, in vitro neutralization assay",[7],0.032 nM
same,"IC50, in vitro neutralization assay",human TNF-α [8],0.025 nM
same,"IC50, in vitro neutralization assay",rat IL-17,0.135 nM
same,Kd,rabbit IL-17 [9],3.3 nM
